Test results reported in patent publication US20260240820A1, “METHOD FOR CONTROLLING MEMBRANE POTENTIAL-DEPENDENT ION CHANNEL THROUGH TYPE I TASTE RECEPTORS (T1RS)” (ION CHAT RESEARCH CORPORATE, priority 2022, published 2026).
“Also recorded” adds a separate entry of the source. Where two headings read alike, the source gives them in different places.

System: Nav1.6
Assay: Patch-clamp recording of VGSC current in HEK (Nav1.6) cells
Assay type: cell-based, human

B1: Thaumatin: sweet-tasting protein binding to the CRD of T1R3 (protein)
chain: ATFEIVNRCSYTVWAAASKGDAALDAGGRQLNSGESWTINVEPGTNGGKIWARTDCYFDDSGSGICKTGDCGGLLRCKRFGRPPTTLAEFSLNQYGKDYIDISNIKGFNVPMDFSPTTRGCRGVRCAADIVGQCPAKLKAPGGGCNDACTVFQTSEYCCTTGKCGPTEYSRFFKRLCPDAFSYVLDKPTTVTCPGSSNYRVTFCPTA
For B1, which “Effect on VGSC current, alone” value is on record?
Its value is “amplified VGSC currents similarly to Aβ1-42”.

And the “Effect on VGSC current when applied after Aβ1-42” value (listed as thaumatin)?
The value was “further amplification of VGSC currents was not observed; also recorded: no further amplification”.

What about the “Effect on VGSC current, alone” value (listed as thaumatin) of the same molecule?
The value was “similarly amplified VGSC currents as Aβ1-42”.
